According to US20250026849A1 (ARCELLX, published 2025):
Numbering of substitutions follows the chain as printed.

B1: D domain of SEQ ID NO: 351 (designed binder)
chain: MGSWVEFWFRLEAIDSRLWALGGSEAELAAFEKEIAAFESELQAYKGKGNPEVEWLREEAAAIREDLQAYRHN
B2: D domain of SEQ ID NO: 349 (designed binder)
chain: B1 chain with V5T, W8H, F9D, S16D, W55Y, A62Q, E65W, D66E
B3: D domain of SEQ ID NO: 350 (designed binder)
chain: B1 chain with V5A, W8E, F9D, E12W, D15E, S16D, W55Y, E65F, D66E
B4: D domain of SEQ ID NO: 352 (designed binder)
chain: B1 chain with F9Q, D15E, W55F, A62E, E65W, D66E
B5: D domain of SEQ ID NO: 353 (designed binder)
chain: B1 chain with V5S, F9Q, D15E, S16D, E59N, A62M, E65D, D66E
B6: D domain of SEQ ID NO: 354 (designed binder)
chain: B1 chain with V5S, W8I, F9T, S16D, W55I, A62E, E65Q, D66H
B7: D domain of SEQ ID NO: 355 (designed binder)
chain: B1 chain with V5Y, W8E, F9T, D15Y, S16D, W55L, E58V, A62E
B8: D domain of SEQ ID NO: 361 (designed binder)
chain: MGSWVEFHERLEAIEDRLMALGGSEAELAAFEKEIAAFESELQAYKGKGNPEVEYLREDAAFIRQLLQAYRHN
B9: D domain of SEQ ID NO: 362 (designed binder)
chain: B8 chain with E9D, M19Y, Y55W, F62Y, Q65S, L66I
B10: D domain of SEQ ID NO: 363 (designed binder)
chain: B8 chain with V5I, H8Y, E9D, E15Y, M19D, Y55W, Q65S, L66W
B11: D domain of SEQ ID NO: 364 (designed binder)
chain: B8 chain with H8D, E9Q, E15Y, M19Y, Y55W, F62Q, Q65K, L66W
B12: D domain of SEQ ID NO: 365 (designed binder)
chain: B8 chain with E9D, M19L, Y55D, D59Y, F62G, Q65W, L66F
B13: D domain of SEQ ID NO: 396 (designed binder)
chain: B1 chain with W8D, F9M, E12S, D15W, S16E, W19I, E59D, A62E, D66F
B14: D domain of SEQ ID NO: 397 (designed binder)
chain: B1 chain with W8D, F9Q, E12D, D15Y, S16E, W19Y, E58D, A62E, D66H
B15: D domain of SEQ ID NO: 400 (designed binder)
chain: B1 chain with W8Y, F9S, E12D, D15E, S16D, E58I, E59A, A62S
B16: D domain of SEQ ID NO: 401 (designed binder)
chain: MGSWYEFYERLDAIEERLWALGGSEAELAAFEKEIAAFESELQAYKGKGNPEVEVLRDWAAWIREDLQAYRHN
B17: D domain of SEQ ID NO: 402 (designed binder)
chain: B16 chain with Y5F, Y8D, E9D, D12W, E16N, W59N, D66I
B18: D domain of SEQ ID NO: 403 (designed binder)
chain: B16 chain with Y8W, E9D, I14L, E16D, V55Y, W59S, W62F, D66E
B19: D domain of SEQ ID NO: 404 (designed binder)
chain: B1 chain with V5M, W8V, F9D, E12D, D15E, E58I, A62F, D66E
B20: D domain of SEQ ID NO: 405 (designed binder)
chain: B16 chain with Y5D, Y8V, E9D, D12W, V55E, D58I, W59Q, W62I, D66A
B21: D domain of SEQ ID NO: 412 (designed binder)
chain: B1 chain with V5F, F9D, D15W, S16E, W19D, W55E, E58R, A62I
B22: D domain of SEQ ID NO: 413 (designed binder)
chain: B1 chain with V5F, W8E, F9D, D15Y, S16Q, W19D, E58D, A62W, E65S
B23: D domain of SEQ ID NO: 414 (designed binder)
chain: B1 chain with V5F, W8H, F9D, E12W, S16E, W55I, A62D, E65L
B24: D domain of SEQ ID NO: 415 (designed binder)
chain: MGSWYEFEDRLWAIDNRLWALGGSEAELAAFEKEIAAFESELQAYKGKGNPEVEELRVHAADIRDDLQAYRHN
B25: D domain of SEQ ID NO: 416 (designed binder)
chain: B24 chain with Y5F, E8Q, V58D, D62M, D65W, D66E
B26: D domain of SEQ ID NO: 430 (designed binder)
chain: B1 chain with V5M, W8E, F9E, E12W, E58S, A62W, E65M, D66E
B27: D domain of SEQ ID NO: 356 (designed binder)
chain: MGSWTEFYYRLEAIEDRLWALGGSEAELAAFEKEIAAFESELQAYKGKGNPEVEFLRVEAANIRDMLQAYRHN
B28: D domain of SEQ ID NO: 442 (designed binder)
chain: MGSWVEFHMRLDAIYERLDALGGSEAELAAFEKEIAAFESELQAYKGKGNPEVEWLRTAAANIRVELQAYRHN

Biological target: T1, CD123 (Homo sapiens (Human), UniProt P26951 19-305, limits assumed)
T1 construct: The CD123 construct used in the ELISA is not described; also called CD123-Signal
T1 sequence: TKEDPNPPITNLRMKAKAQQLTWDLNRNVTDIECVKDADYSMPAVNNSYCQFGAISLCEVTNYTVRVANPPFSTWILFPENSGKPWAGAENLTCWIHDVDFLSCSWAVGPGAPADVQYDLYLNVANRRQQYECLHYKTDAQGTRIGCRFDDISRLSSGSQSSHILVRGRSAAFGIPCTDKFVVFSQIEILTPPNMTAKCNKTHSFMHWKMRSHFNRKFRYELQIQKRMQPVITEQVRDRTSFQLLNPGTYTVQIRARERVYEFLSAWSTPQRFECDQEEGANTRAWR
Test: ELISA
Set-up: unit not given here

Row | Binder | ELISA_avg
1 | B1 | 3.2
2 | B2 | 5.8
3 | B3 | 6.2
4 | B4 | 7.7
5 | B5 | 4.7
6 | B6 | 3.3
7 | B7 | 3.2
8 | B8 | 3.7
9 | B9 | 4.6
10 | B10 | 7.5
11 | B11 | 5.1
12 | B12 | 3.3
13 | B13 | 3.3
14 | B14 | 10.5
15 | B15 | 9.4
16 | B16 | 8.4
17 | B17 | 4.2
18 | B18 | 9.7
19 | B19 | 5.8
20 | B20 | 6
21 | B21 | 10.3
22 | B22 | 5.5
23 | B23 | 3.5
24 | B24 | 4.9
25 | B25 | 3.2
26 | B26 | 3.2
27 | B27 | 7.5
28 | B28 | 9.1
